This is an account of results in US20190169311A1.

Test [1] deals with TFECDHis (human) (UniProt P13726). The experiment in a line: ELISA, coated TFECDHis; mean of 3 experiments.
For test [2] the target is unchanged. The experiment in a line: cross-competition ELISA; competitor: coated 11.
Test [3] has the same target. Nature of the test: cross-competition ELISA; competitor: coated 44. For orientation: In an ELISA, binding on a coated surface is turned into a signal by an enzyme label.
Test [4] has the same target. Nature of the test: cross-competition ELISA; competitor: coated 101.
For test [5] the target is unchanged. Nature of the test: cross-competition ELISA; competitor: coated 111.
Test [6] shares this target. Nature of the test: cross-competition ELISA; competitor: coated 114.
Test [7] has the same target. Nature of the test: cross-competition ELISA; competitor: coated 087-Lg6.
Test [8] has the same target. Nature of the test: cross-competition ELISA; competitor: coated 092-A09.
Test [9] shares this target. The experiment in a line: SPR (BIAcore 3000), antibody immobilized, TFECDHis as analyte.

A word on the EC50: it is the concentration needed to bring the measured effect to its halfway point. A higher EC50 goes with lower potency in that assay. Usually Kd stands for the free concentration of one partner at which half of the binding sites on the other are occupied at equilibrium, for simple one-to-one binding.

With HuMab-TF-011 (antibody), the EC50 in test [1] amounted to 0.16 nM. For the same substance, the competition value (unit not given) in test [2] stood at 20; in test [3], 143; in [4], 23; in test [5], 175; in [6] it was 19; in test [7] it was 929. This substance registered a competition value (unit not given) in [8] of 21. This substance also had a Kd in test [9] of 3.15 nM.
